Substitutions are numbered along the chain they refer to. Where two headings read alike, the source gives them in different places.

Assay [1] concerns the target T1, recombinant human PD-1 tagged with histidine tag (hPD-1-His) (human, UniProt Q15116 25-167, limits assumed).
T1 construct: bought (Reprokine); not shown: histidine tag
Description: yeast surface display flow cytometry: scFv on yeast, 111 nM hPD-1-His, anti-His-APC; median RFU. (In general: In flow cytometry, cells or beads pass a laser one at a time.)

In assay [2] the target is T2, PD-1 on engineered Jurkat effector cells (PD-1/PD-L1 Blockade Bioassay) (UniProt Q15116 25-288, limits assumed). Description: cell-based or functional assay.
Assay [3] has as its target T2, PD-1 on engineered Jurkat effector …. Description: cell-based or functional assay. This is another data set of the same source.
The target of assay [4] is T3, recombinant human OX40 tagged with histidine tag (hOX40-His) (human, UniProt P43489 29-216).
T3 construct: bought (Reprokine); also called hOX-His; not shown: histidine tag
T3 sequence (looked up): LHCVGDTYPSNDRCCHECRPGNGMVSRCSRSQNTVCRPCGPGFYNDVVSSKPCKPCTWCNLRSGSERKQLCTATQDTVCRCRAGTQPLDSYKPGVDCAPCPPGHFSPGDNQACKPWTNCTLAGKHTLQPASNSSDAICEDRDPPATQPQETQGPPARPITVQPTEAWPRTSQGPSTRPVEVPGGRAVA
Briefly: direct ELISA, antibody coated, hOX40-His titrated 0 to 500 nM. (In an ELISA, binding on a coated surface is turned into a signal by an enzyme label.)

Assay [5] has as its target T3, recombinant human OX40 tagged with …. Description: direct ELISA: antibody coated on the plate, hOX40-His titrated, anti-His-HRP.
Assay [6] deals with T1, recombinant human PD-1 tagged with …. Description: direct ELISA: antibody coated on the plate, hPD-1-His titrated, anti-His-HRP.
Assay [7] has the same target. Description: yeast surface display scFv, flow cytometry, 30 nM hPD-1-His.
Assay [8] addresses T3, recombinant human OX40 tagged with …. Description: yeast surface display scFv, flow cytometry, 90 nM hOX40-His.
Assay [9] addresses T4, recombinant human GITR tagged with histidine tag (hGITR-His) (human, UniProt Q9Y5U5 26-161, limits assumed).
T4 construct: bought (Reprokine); not shown: histidine tag
T4 sequence (looked up): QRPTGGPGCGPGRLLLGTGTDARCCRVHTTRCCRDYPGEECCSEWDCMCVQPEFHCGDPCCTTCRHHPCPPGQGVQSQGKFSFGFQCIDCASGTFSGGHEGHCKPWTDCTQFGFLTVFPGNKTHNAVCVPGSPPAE
Description: direct ELISA, antibody coated, hGITR-His titrated 0 to 865 nM.

Assay [10] concerns the target T1, recombinant human PD-1 tagged with …. Briefly: direct ELISA: antibody coated on the plate, hPD-1-His titrated, anti-His-HRP. This is another data set of the same source.
Assay [11] concerns the target T4, recombinant human GITR tagged with …. Briefly: yeast surface display scFv, flow cytometry.
Assay [12] addresses T1, recombinant human PD-1 tagged with …. Briefly: yeast surface display scFv, flow cytometry, 250 nM hPD-1-His.
Assay [13] deals with T4, recombinant human GITR tagged with …. Description: direct ELISA: antibody coated on the plate, hGITR-His titrated, anti-His-HRP.
Assay [14] addresses T5, recombinant human IL-13 (human, UniProt P35225 35-146). Description: cell-based or functional assay.
In assay [15] the target is T6, hTSLP-His (ACRO biosystems cat: TSP-H52Hb) (human, UniProt Q969D9 29-159, limits assumed). Description: cell-based or functional assay.
In assay [16] the target is T7, human TSLP (human, UniProt Q969D9 29-159).
T7 construct: also called hTSLP; h-TSLP
Description: ELISA, ligand coated, IgG titrated 1 to 1000 nM.

Assay [17] addresses T8, recombinant cynomolgus monkey IL-13 (cynomolgus monkey, UniProt Q0PW92 21-132).
T8 construct: also called rc-IL-13; cIL-13
Description: ELISA, ligand coated, IgG titrated 1 to 1000 nM.

In assay [18] the target is T9, cynomolgus monkey TSLP (cynomolgus monkey, UniProt A0A7N9CAT7 29-159).
T9 construct: also called cTSLP; cyno-TSLP
T9 sequence (A0A7N9CAT7 entry or part of it): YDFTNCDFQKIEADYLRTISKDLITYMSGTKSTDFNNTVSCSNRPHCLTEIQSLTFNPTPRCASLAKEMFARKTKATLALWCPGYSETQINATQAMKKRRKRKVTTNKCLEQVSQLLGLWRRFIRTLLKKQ
Briefly: ELISA, ligand coated, IgG titrated 1 to 1000 nM.

The target of assay [19] is T5, recombinant human IL-13. Briefly: SPR (BIAcore T200), IgG captured, hIL-13 as analyte 20 to 0.6 nM. On the technique in general: Surface plasmon resonance follows binding to a sensor surface in real time, without labels.
Assay [20] concerns the target T6, hTSLP-His (ACRO biosystems cat: …). Description: competition ELISA: 3 nM hTSLP-His pre-mixed with IgG, plate coated with TSLP-R-Fc.
Assay [21] addresses T10, IL-4 (Homo sapiens (Human), UniProt P05112 25-153).
T10 sequence: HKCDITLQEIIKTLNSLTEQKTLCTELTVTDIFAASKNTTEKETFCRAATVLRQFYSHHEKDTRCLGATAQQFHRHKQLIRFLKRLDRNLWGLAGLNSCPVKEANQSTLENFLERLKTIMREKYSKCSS
Briefly: specificity ELISA: plate coated with 250 ng ligand, 100 nM IgG, anti-human Fc-HRP.

Assay [22] has as its target T11, IL-2 (specificity ELISA of Example 6) (Homo sapiens (Human), UniProt P60568 21-153). The description is as above.
For assay [23], the target named is BSA (UniProt P02769 25-607). The description is as above.
Chain of BSA (P02769 25-607 limits assumed): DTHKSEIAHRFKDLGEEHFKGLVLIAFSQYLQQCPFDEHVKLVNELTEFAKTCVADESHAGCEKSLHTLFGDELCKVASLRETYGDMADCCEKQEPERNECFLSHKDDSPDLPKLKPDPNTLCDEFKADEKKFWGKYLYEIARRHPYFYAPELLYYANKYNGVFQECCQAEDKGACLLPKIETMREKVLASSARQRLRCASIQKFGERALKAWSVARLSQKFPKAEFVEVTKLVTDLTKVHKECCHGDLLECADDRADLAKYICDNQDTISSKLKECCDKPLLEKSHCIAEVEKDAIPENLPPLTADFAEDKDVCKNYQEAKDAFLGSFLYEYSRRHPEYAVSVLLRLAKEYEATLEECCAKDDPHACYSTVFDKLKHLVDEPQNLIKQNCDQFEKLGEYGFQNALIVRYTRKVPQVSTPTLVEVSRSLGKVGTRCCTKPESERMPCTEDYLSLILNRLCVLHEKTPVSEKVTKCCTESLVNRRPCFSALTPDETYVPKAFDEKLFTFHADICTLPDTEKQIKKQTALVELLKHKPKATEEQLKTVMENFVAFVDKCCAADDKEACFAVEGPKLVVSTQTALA
Assay [24] concerns the target T11, IL-2 (specificity ELISA of Example 6). Briefly: specificity ELISA, ligand coated.
Assay [25] has as its target T5, recombinant human IL-13. Briefly: cell-based or functional assay. The source holds these as a separate data set.
For assay [26], the target named is T6, hTSLP-His (ACRO biosystems cat: …). Briefly: competition ELISA: hTSLP-His pre-mixed with soluble TSLP-R as competitor, plate coated with TSLP-R-Fc.
Assay [27] shares this target. Description: blocking ELISA: competitor mixed with 3 nM hTSLP-His, then on a plate coated with TSLP-R-Fc; bound hTSLP-His by anti-His-HRP.

T5 sequence (P35225 35-146 limits assumed): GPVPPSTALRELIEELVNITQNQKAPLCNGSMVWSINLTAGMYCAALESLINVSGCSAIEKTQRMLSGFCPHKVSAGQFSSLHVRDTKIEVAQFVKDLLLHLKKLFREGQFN
T11 sequence (P60568 21-153 limits assumed): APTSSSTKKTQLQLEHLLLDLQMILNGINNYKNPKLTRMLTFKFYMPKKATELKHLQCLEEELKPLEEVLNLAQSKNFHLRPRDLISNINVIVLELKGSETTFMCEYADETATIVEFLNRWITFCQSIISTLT
T8 sequence (Q0PW92 entry or part of it): as the sequence (P35225 35-146 limits assumed) above, with G1S, R10K, M42V, S67N, H83R, L100V counted along it

B1: G2 (GITR Library) (scFv, V domains shown)
VH: QVQLVESGGGVVQPGRSLRLDCKASGITFSNSGMHWVRQAPGKGLEWVAVIWYDGSLRYYADSVKGRFTISRDNSKNTLFLQMNSLRAEDTAVYYCATNDDYWGQGTLVTVSS
VL: EIVLTQSPATLSLSPGERATLSCRASQSVSDNLAWYQQKPGQAPRLLIYDADNRATGIPARFSGSGSGTDFTLTISSLEPEDFAVYYCQQSSNLPRTFGQGTKVEIK
notes: also called Clone G2; not shown: linker
For B1, in assay [1], the binding result is listed as “binds”.

B2: BDG32.007 (antibody, human IgG1, V domains shown)
VH: B1 VH with L57K, R58T
VL: B1 VL with S30E, D31H, N32Y, D52G, S91Y, N93D, L94W, R96L
notes: human IgG1 format of clone 3212ACOXC5A
The term EC50 denotes the concentration that produces a half-maximal response. By EC50 (read off the curve) is commonly meant the concentration that produces a half-maximal response. Take B2: the “IC50, cellular reporter PD1/PDL1 blocking assay (PD-1 dependent luminescence)” value in assay [2] was roughly 2.5 nM. Also, the “IC50 (read off the curve); PD-1/PD-L1 Blockade Bioassay, luciferase RLU” value in assay [3] is roughly 2 nM. Moreover, the EC50 in assay [4] is roughly 26 nM. In addition, the 50% effective concentration (EC50 (read off the curve)) was roughly 30 nM in assay [5] and roughly 0.6 nM in assay [6].

B3: 3212ACOXC81 (OX40 library) (scFv, V domains shown)
VH: B1 VH with T28D, L57T
VL: B1 VL with S30I, D31H, N32Y, D52S, S91Y, S92D, L94W, R96L
notes: not shown: linker
For the molecule B3, the binding result in assay [7] and in [8] was “binds” in each case.

B4: BDG32.004 (antibody, human IgG1, V domains shown)
VH: B1 VH with I27F
VL: B1 VL with A34Q, N53T
For B4, the 50% effective concentration (EC50) in assay [9] was roughly 13 nM. Also, in assay [10], the concentration giving a half-maximal response (EC50 (read off the curve)) is roughly 2 nM.

B5: G1 (GITR Library) (scFv, V domains shown)
VH: B1 VH with V2A, P14A, S32R
VL: B1 VL
notes: not shown: linker
For the molecule B5, the binding result in assay [11] and in assay [12] was “binds” each time.

B6: BDG32.005 (antibody, human IgG1, V domains shown)
VH: B1 VH
VL: B1 VL with Q89M, P95A
notes: human IgG1 format
In the case of B6, in assay [2], the “IC50, cellular reporter PD1/PDL1 blocking assay (PD-1 dependent luminescence)” value was roughly 614 nM. Moreover, in [9], the half-maximal effective concentration (EC50) was roughly 4 nM. Besides, the concentration giving a half-maximal response (EC50 (read off the curve)) is roughly 4 nM in assay [13] and roughly 3 nM in assay [10].

B7: BDG32.008 (antibody, human IgG1, V domains shown)
VH: B1 VH with T28D
VL: B1 VL with S30E, D31H, N32Y, I48V, D52S, S91Y, L94W, R96L
notes: human IgG1 format of clone 3212ACOXC7A
In the case of B7, the concentration for a half-maximal effect (EC50) in assay [4] was roughly 24 nM. In addition, the results for the “EC50 (read off the curve)” value in [5] and in assay [6] were roughly 20 nM and roughly 0.9 nM, respectively.

B8: BDG33.023 (antibody, human IgG1, V domains shown)
VH: QMQLVESGGGVVQPGRSLRLSCAASGFAFRTYGMHWVRQAPGKGLEWVAVIWYDGSNTHYADSVKGRFTITRDNSKNTLNLQMNSLRAEDTAVYYCARAPQWYLSAEAFDLWGQGTMVTVSS
VL: SYVLTQPPSVSVAPGQTARITCGGNLIGSKLVHWYQQKPGQAPVLVVYDDSDRPSRIPERFSGSNSGNTATLTISRVEAGDEADYYCQVWDHSSDHVVFGGGTKLTVL
notes: IgG (human IgG1 format, symmetrical IgG); also called BGD33.023; BGD33.0023
Usually Kd stands for the constant that tells how readily two partners part at equilibrium. As a reminder, the koff is a measure of how fast the partners let go of each other. The kon is a measure of how fast the partners come together. The IC50 is the point on the concentration scale where inhibition reaches its midpoint. As for B8, the “IC50, inhibition of IL-13 signaling cascade in HEK-Blue IL-4/IL-13 cells” value in [14] is 1.3 nM. The “IC50, inhibition of TSLP dependent pSTAT5 activation in MUTZ5 cells” value in assay [15] is 13 pM. Also, the EC50 in [16] is 2.5 nM; in [17] it was 7.1 nM; in assay [18] it was 8.2 nM. Also, the Kd in assay [19] is 3.65 nM. Besides, in assay [19], the koff is 0.0157 s⁻¹. Also, the kon in assay [19] was 4.31e+06 M⁻¹ s⁻¹. This molecule also returned an IC50 in [20] of 0.41 nM. Moreover, the binding result in [21], in [22] and in assay [23] was “no binding (tested: 100 nM IgG (not on the sheet))” in each case.

B9: BDG33.025 (antibody, human IgG1, V domains shown)
VH: B8 VH with A28T, V50D, T58K, S105V, A108P
VL: B8 VL with R56L, H92S, H96G
notes: IgG (human IgG1 format, symmetrical IgG); also called BGD33.025; BDG33.0025
As to B9, the “IC50, inhibition of IL-13 signaling cascade in HEK-Blue IL-4/IL-13 cells” value in assay [14] was 25 nM. Moreover, the binding result in assay [24] was “no binding (tested: 100 nM IgG)”; in assay [23], “no binding (tested: 100 nM IgG (not on the sheet))”. The “IC50 (read off the curve); HEK-Blue IL-4/IL-13 STAT6-SEAP reporter with 0.4 nM rh-IL-13, OD 620” value in assay [25] was roughly 20 nM. Further, the figures for the 50% effective concentration (EC50) in assay [16], in assay [17] and in assay [18] were 12.8 nM, 1.5 nM and 148 nM, respectively. In addition, the Kd in assay [19] is 0.903 nM. In addition, the dissociation rate constant (koff) in assay [19] is 0.0036 s⁻¹. Also, in assay [19], the kon worked out at 4.07e+06 M⁻¹ s⁻¹.

B10: TSLP-R-Fc tag (ACRO biosystems TSR-H525a) (Fc fusion, UniProt Q9HC73 23-231, looked up)
chain: QGGAAEGVQIQIIYFNLETVQVTWNASKYSRTNLTFHYRFNGDEAYDQCTNYLLQEGHTSGCLLDAEQRDDILYFSIRNGTHPVFTASRWMVYYLKPSSPKHVRFSWHQDAVTVTCSDLSYGDLLYEVQYRSPFDTEWQSKQENTCNVTIEGLDAEKCYSFWVRVKAMEDVYGPDTYPSDWSEVTCWQRGEIRDACAETPTPPKPKLSK
notes: bought; also called TSLP receptor; not shown: Fc tag
Take B10: in assay [26], the IC50 was determined as 3 nM. Moreover, the “IC50 (read off the curve)” value in assay [27] was roughly 3 nM.

Source of the values: patent US20240101675A1 (BIOLOJIC DESIGN, published 2024).
